What was measured:
Assay in all cases: purified protein
C/C(C=O)=C\CC/C(C)=C/C=O = conditions: 250 μM NADPH, 50 mM HEPES/NaOH pH 7.0, 100 mM NaCl, 25 °C, 0.1% tetrahydrofuran
[1] = test system: CC(=O)[C@H]1CC[C@H]2[C@@H]3CCC4=CC(=O)CC[C@]4(C)[C@H]3CC[C@]12C; conditions: 250 μM NADPH, 50 mM HEPES/NaOH pH 7.0, 100 mM NaCl, 25 °C, 1.5% ethanol
[2] = test system: CC(=O)[C@H]1CC[C@H]2[C@@H]3CCC4=CC(=O)CC[C@]4(C)[C@H]3CC[C@]12C; format: biochemical, Digitalis lanata; conditions: 250 μM NADPH, 50 mM HEPES/NaOH pH 7.0, 100 mM NaCl, 25 °C, 1.5% ethanol
[3] = test system: CC(=O)[C@H]1CC[C@H]2[C@@H]3CCC4=CC(=O)CC[C@]4(C)[C@H]3CC[C@]12C; format: biochemical, Digitalis purpurea; conditions: 250 μM NADPH, 50 mM HEPES/NaOH pH 7.0, 100 mM NaCl, 25 °C, 1.5% ethanol

With “Physcomitrella patens PRISE (Physcomitrium patens)” the Km (C/C(C=O)=C\CC/C(C)=C/C=O) was 31.3 ± 8.6 µM, the kcat (C/C(C=O)=C\CC/C(C)=C/C=O) was 0.066 ± 0.005 s⁻¹ and the kcat/Km (C/C(C=O)=C\CC/C(C)=C/C=O) was 2100 M⁻¹ s⁻¹. The Km [1] was 9.5 ± 3.1 µM.
With “Digitalis lanata 1 (PRISE1, progesterone 5β-reductase) (Digitalis lanata)” the Km [2] was 6.5 ± 2.0 µM.
With “Digitalis purpurea 2 (Digitalis purpurea)” the Km [3] was 6.3 ± 1.9 µM.
